Measurements taken from doi:10.1101/2022.12.23.521429v4.

Tested on: Nc1ncnc2c1ncn2[C@@H]1O[C@H](COP(=O)(O)OP(=O)(O)OP(=O)(O)O)[C@@H](O)[C@H]1O
Test: kinase activity assay
Assay type: biochemical, Homo sapiens
Conditions: co-substrate and buffer of the KM determination not told

DYRK1B kinase domain (78-442) (Homo sapiens)
Km: 105 µM
